Test results taken from article PMC5548806.

Tests used:
[1] = molecular target: CU44 HA ectodomain mutant V91W of HA2 fused to the foldon (pre-thrombin) (influenza A virus H1N1 A/Thailand/CU44/2006 | not stated); experiment: SEC; foldon present (pre-thrombin); Superdex 200 in 50 mM Tris (pH 8.0), 100 mM NaCl, 0.5 ml/min; Fig. 1C
[2] = molecular target: CU44 HA ectodomain mutant S199F of HA1, foldon removed by thrombin (influenza A virus H1N1 A/Thailand/CU44/2006); experiment: SEC; […] (pH 8.0), 100 mM NaCl, 0.5 ml/min; […]
[3] = molecular target: CU44 wild-type HA ectodomain (A/Thailand/CU44/2006), foldon removed by thrombin (influenza A virus H1N1 A/Thailand/CU44/2006); experiment: SEC; […] (pH 8.0), 100 mM NaCl, 0.5 ml/min; […]
[4] = molecular target: CU44 HA ectodomain mutant F88E of HA2 fused to the foldon (pre-thrombin) (influenza A virus H1N1 A/Thailand/CU44/2006 | not stated); experiment: SEC; foldon present (pre-thrombin); Superdex 200 in 50 mM Tris (pH 8.0), 100 mM NaCl, 0.5 ml/min; Fig. 1C
[5] = molecular target: CU44 HA ectodomain mutant R106E of HA2, foldon removed by thrombin (influenza A virus H1N1 A/Thailand/CU44/2006); experiment: SEC; […] (pH 8.0), 100 mM NaCl, 0.5 ml/min; […]
[6] = molecular target: CU44 HA ectodomain mutant R75L of HA2, foldon removed by thrombin (influenza A virus H1N1 A/Thailand/CU44/2006); experiment: SEC; […] (pH 8.0), 100 mM NaCl, 0.5 ml/min; […]
[7] = molecular target: CU44 HA ectodomain mutant G47E of HA2, foldon removed by thrombin (influenza A virus H1N1 A/Thailand/CU44/2006); experiment: SEC; […] (pH 8.0), 100 mM NaCl, 0.5 ml/min; […]
[8] = molecular target: CU44 HA ectodomain double mutant F88E/V91W of HA2 fused to the foldon (before the foldon cleavage) (influenza A virus H1N1 A/Thailand/CU44/2006 | not stated); experiment: SEC; foldon present (pre-thrombin); Superdex 200 in 50 mM Tris (pH 8.0), 100 mM NaCl, 0.5 ml/min; Fig. 1C

With “CU44 HA ectodomain mutant V91W of HA2 fused to the foldon (pre-thrombin)” as the substance, how does the stoichiometry N [1] read?
Its stoichiometry N is 3.

For “CU44 HA ectodomain mutant S199F of HA1, foldon removed by thrombin (domain or fragment)”, which stoichiometry N [2] is on record?
Its stoichiometry N is 3.

Which stoichiometry N [3] does the source give for “CU44 wild-type HA ectodomain (A/Thailand/CU44/2006), foldon removed by thrombin (domain or fragment)” here?
The stoichiometry N was 3.

Which stoichiometry N [4] does the source give for “CU44 HA ectodomain mutant F88E of HA2 fused to the foldon (pre-thrombin)” here?
Its stoichiometry N is 3.

For “CU44 HA ectodomain mutant R106E of HA2, foldon removed by thrombin (domain or fragment)”, which stoichiometry N [5] is on record?
The stoichiometry N was 3.

“CU44 HA ectodomain mutant R75L of HA2, foldon removed by thrombin (domain or fragment)” was tested. Which stoichiometry N [6] did it give?
The stoichiometry N was 3.

For “CU44 HA ectodomain mutant G47E of HA2, foldon removed by thrombin (domain or fragment)”, which stoichiometry N [7] is on record?
Its stoichiometry N is 3.

For “CU44 HA ectodomain double mutant F88E/V91W of HA2 fused to the foldon (before the foldon cleavage)”, which stoichiometry N [8] is on record?
The stoichiometry N was 3.
